B1: 520 (protein)
chain: MAQGKVALEEHFAIPETLNDAAGFVPGDYWKELQHRLMDIQDTRLKEMDKHEIGTMVLSLAAPAVQAIPDRRKAIEIARRANDFLAEEVAKRPDRFLAFAALPMQDVDAATSELQRCVNDLGFVGAMVNGFSQEGDGQTPLYYDLPQYRPFWGEVEKLDVPFYLHPRNPLPQDSRIYDGHPWLLGPTWAFAQETAVHALRLMASGLFDEHPRLNIILGHMGEGLPYMMYRIDHRIAWVKAPPDYPAKRRFMDYFLENFHITTSGNFRTQTLIDAILEIGADRILFSTDWPFENIDHAADWFNATSIAEADRVKIGRTNARRLFKLDGS
modifications: Dicamba decarboxylase variant
B2: 528 (protein)
chain: MAQGKVALEEHFAIPETLQDAAGFVPGDYWKELQHRLLDIQDTRLKEMDKHEIGTMVLSLAAPAVQAIPDRRKAIEIARRANDFLAEEVAKRPDRFLAFAALPLQDPDAATEELQRCVNDLGFVGAMVNGFSQEGDGQTPLYYDLPQYRPFWGEVEKLDVPFYLHPRNPLPQDSRIYDGHPWLLGPTWAFAQETAVHALRLMASGLFDEHPRLNIILGHMGEGLPYMMYRIDHRIAWVKAPPDYPAKRRFMDYFLENFHITTSGNFRTQTLIDAILEIGADRILFSTDWPFENIDHAADWFNATSIAEADRVKIGRTNARRLFKLDGR
modifications: Dicamba decarboxylase variant
B3: 534 (protein)
chain: MAQGLVALEEHFAIPETLQDAAGFVPGDYWKELQHRLLDIQDTRLKEMDKHEIGTMILSLAAPAVQAIPDRRKAIEIARRANDFLAEEVAKRPDRFLAFAALPLQDVDAATEELQRCVNDLGFVGAMVNGFSQEGDGQTPLYYDLPQYRPFWGEVEKLDVPFYLHPRNPLPQDSRIYDGHPWLLGPTWAFAQETAVHALRLMASGLFDEHPRLNIILGHMGEGLPYMMYRIDHRIAWVKAPPDYPAKRRFMDYFLENFHITTSGNFRTQTLIDAILEIGADRILFSTDWPFENIDHAADWFNATSIAEADRVKIGRTNARRLFKLDGR
modifications: Dicamba decarboxylase variant
B4: 521 (protein)
chain: MAQGLVALEEHFAIPETLNDAAGFVPGDYWKELQHRLLDIQDTRLKEMDKHGIGTMILSLAAPAVQAIPDRRQAIELARRANDFLAEEVAKRPDRFLAFAALPLQDVDAATEELQRCVADLGFVGAMVNGFSQEGDGQTPLYYDLPQYRPFWGEVEKLDVPFYLHPRNPLPQDSRIYDGHPWLLGPTWAFAQETAVHALRLMASGLFDEHPRLNIILGHMGEGLPYMMYRIDHRIAWVKAPPDYPAKRRFMDYFLENFHITTSGNFRTQTLIDAILEIGADRILFSTDWPFENIDHAADWFNATSIAEADRVKIGRTNARRLFKLDGR
modifications: Dicamba decarboxylase variant
B5: 522 (protein)
chain: MAQGLVALEEHFAIPETLQDAAGFVPGDYWKELQHRLLDIQDTRLKEMDKHEIGTMILSLAAPAVQGIPDRRKAIEIARRANDFLAEEVAKRPDRFLAFAALPLQDVDAATEELQRCVNDLGFVGAMVNGFSQEGDGQTPLYYDLPQYRPFWGEVEKLDVPFYLHPRNPLPQDSRIYDGHPWLLGPTWAFAQETAVHALRLMASGLFDEHPRLNIILGHMGEGLPYMMYRIDHRIAWVKAPPDYPAKRRFMDYFLENFHITTSGNFRTQTLIDAILEIGADRILFSTDWPFENIDHAADWFNATSIAEADRVKIGRTNARRLFKLDGR
modifications: Dicamba decarboxylase variant
B6: 531 (protein)
chain: MAQGLVALEEHFAIPETLQDAAGFVPGCYWKELQHRLLDIQDTRLKEMDKHEIGTMILSLAAPAVQAIPDRRKAIEIARRANDFLAEEVAKRPDRFLAFAALPLQDVDAATEELQRCVNDLGFVGAMVNGFSQEGDGQTPLYYDLPQYRPFWGEVEKLDVPFYLHPRNPLPQDSRIYDGHPWLLGPTWAFAQETAVHALRLMASGLFDEHPRLNIILGHMGEGLPYMMYRIDHRIAWVKAPPDYPAKRRFMDYFLENFHITTSGNFRTQTLIDAILEIGADRILFSTDWPFENIDHAADWFNATSIAEADRVKIGRTNARRLFKLDGS
modifications: Dicamba decarboxylase variant
B7: 525 (protein)
chain: MAQGLVALEEHFAIPETLQDAAGFVPGDYWKELQHRLMDIQDERLKEMDKHGIGTMILSLAAPAVQAIPDRRKAIEIARRANDFLAEEVAKRPDRFLAFAALPLQDVDAATSELQRCVADLGFVGAMVNGFSQEGDGQTPLYYDLPQYRPFWGEVEKLDVPFYLHPRNPLPQDSRIYDGHPWLLGPTWAFAQETAVHALRLMASGLFDEHPRLNIILGHMGEGLPYMMYRIDHRIAWVKAPPDYPAKRRFMDYFLENFHITTSGNFRTQTLIDAILEIGADRILFSTDWPFENIDHAADWFNATSIAEADRVKIGRTNARRLFKLDWT
modifications: Dicamba decarboxylase variant
B8: 530 (protein)
chain: MAQGLVALEEHFAIPETLQDAAGFVPGDYWKELQHRLLDIQDTRLKEMDRHEIGTMVLSLAAPAVQAIPDRRQAIELARRANDFLAEEVAKRPDRFLAFAALPMQDVEAATEELQRCVNDLGFVGAMVNGFSQEGDGQTPLYYDLPQYRPFWGEVEKLDVPFYLHPRNPLPQDSRIYDGHPWLLGPTWAFAQETAVHALRLMASGLFDEHPRLNIILGHMGEGLPYMMYRIDHRIAWVKAPPDYPAKRRFMDYFLENFHITTSGNFRTQTLIDAILEIGADRILFSTDWPFENIDHAADWFNATSIAEADRVKIGRTNARRLFKLDGR
modifications: Dicamba decarboxylase variant
B9: 529 (protein)
chain: MAQGLVALEEHFAIPETLQDAAGFVPGDYWKELQHRLLDIQDTRLKEMDKHEIGTMILSLAAPAVQAIPDRRKAIEIARRANDFLAEEVAKRPDRFLAFAALPLQDVDAATEELQRCVADLGFVGAMVNGFSQEGDGQTPLYYDLPQYRPFWGEVEKLDVPFYLHPRNPLPQDSRIYDGHPWLLGPTWAFAQETAVHALRLMASGLFDEHPRLNIILGHMGEGLPYMMYRIDHRIAWVKAPPDYPAKRRFMDYFLENFWITTSGNFRTQTLIDAILEIGADRILFSTDWPFENIDHAADWFNATSIAEADRVKIGRTNARRLFKLDGR
modifications: Dicamba decarboxylase variant
B10: 526 (protein)
chain: MAQGLVALEEHFAIPETLNDAAGFVPGDYWKELQHRLMDMQDTRLKEMDKHEIGTMILSLAAPAVQAIPDRRKAIEIAKRANDFLAEEVAKRPDRFLAFAALPMQDPEAATEELQRCVNDLGFVGAMVNGFSQEGDGQTPLYYDLPQYRPFWGEVEKLDVPFYLHPRNPLPQDSRIYDGHPWLLGPTWAFAQETAVHALRLMASGLFDEHPRLNIILGHMGEGLPYMMYRIDHRIAWVKAPPDYPAKRRFMDYFLENFHITTSGNFRTQTLIDAILEIGADRILFSTDWPFENIDHAADWFNATSIAEADRVKIGRTNARRLFKLDGR
modifications: Dicamba decarboxylase variant
B11: 527 (protein)
chain: MAQGKVALEEHFAIPETLQDAAGFVPGDYWKELQHRLLDIQDTRLKEMDKHEIGTMILSLAAPAVQAIPDRRKAIEIARRANDFLAEEVAKRPDRFLAFAALPLQDVDAATEELQRCVNDLGFVGAMVNGFSQEGDGQTPLYYDLPQYRPFWGEVEKLDVPFYLHPRNPLPQDSRIYDGHPWLLGPTWAFAQETAVHALRLMASGLFDEHPRLNIILGHMGEGLPYMMYRIDHRIAWVKAPPDYPAKRRFMDYFLENFHITTSGNFRTQTLIDAILEIGADRILFSTDWPFENIDHAADWFNATSIAEADRVKIGRTNARRLFKLDVS
modifications: Dicamba decarboxylase variant
B12: 524 (protein)
chain: MAQGLVALEEHFAIPETLQDAAGFVPGDYWKELQHRLLDIQDTRLKEMDKHEIGTMILSLAAPAVQAIPDRRKAIEIARRANDFLAEEVAKRPDRFLAFAALPMQDVEAATSELQRCVNDLGFVGAMVNGFSQEGDGQTPLYYDLPQYRPFWKEVEKLDVPFYLHPRNPLPQDSRIYDGHPWLLGPTWAFAQETAVHALRLMASGLFDEHPRLNIILGHMGEGLPYMMYRIDHRIAWVKAPPDYPAKRRFMDYFLENFHITTSGNFRTQTLIDAILEIGADRILFSTDWPFENIDHAADWFNATSIAEADRVKIGRTNARRLFKLDGR
modifications: Dicamba decarboxylase variant
B13: 532 (protein)
chain: MAQGKVALEEHFAIPETLQDAAGFVPGDYWKELQHRLLDIQDTRLKEMDKHEIGTMVLSLAAPAVQAIPDRRKAIELARRANDFLAEEVAKRPDRFLAFAALPLQDVDAATEELQRCVNDLGFVGAMVNGFSQEGDGQTPLYYDLPQYRPFWGEVEKLDVPFYLHPRNPLPQDARIYDGHPWLLGPTWAFAQETAVHALRLMASGLFDEHPRLNIILGHMGEGLPYMMYRIDHRIAWVKAPPDYPAKRRFMDYFLENFHITTSGNFRTQTLIDAILEIGADRILFSTDWPFENIDHAADWFNATSIAEADRVKIGRTNARRLFKLDGR
modifications: Dicamba decarboxylase variant
B14: 523 (protein)
chain: MAQGLVALEEHFAIPETLQDAAGFVPGDYWKELQHRLLDIQDTRLKEMDKHEIGTMILSLAAPAVQAIPDRRKAIEIARRANDFLAEEVAKRPDRFLAFAALPLQDVDAATEELQRCVNDLGFVGAMVNGFSQEGDGQTPLYYDLPQYRPFWKEVEKLDVPFYLHPRNPLPQDSRIYDGHPWLLGPTWAFAQETAVHALRLMASGLFDEHPRLNIILGHMGEGLPYMMYRIDHRIAWVKAPPRYPAKRRFMDYFLENFHITTSGNFRTQTLIDAILEIGADRILFSTDWPFENIDHAADWFNATSIAEADRVKIGRTNARRLFKLDGR
modifications: Dicamba decarboxylase variant
B15: 533 (protein)
chain: MAQGKVALEEHFAIPETLQDAAGFVPGCYWKELQHRLLDIQDTRLKEMDKHEIGTMILSLAAPAVQAIPDRRKAIEIARRANDFLAEEVAKRPDRFLAFAALPLQDVDAATEELQRCVADLGFVGAMVNGFSQEGDGQTPLYYDLPQYRPFWGEVEKLDVPFYLHPRNPLPQDARIYDGHPWLLGPTWAFAQETAVHALRLMASGLFDEHPRLNIILGHMGEGLPYMMYRIDHRIAWVKAPPDYPAKRRFMDYFLENFHITTSGNFRTQTLIDAILEIGADRILFSTDWPFENIDHAADWFNATSIAEADRVKIGRTNARRLFKLDGR
modifications: Dicamba decarboxylase variant

test: DNA shuffling libraries: 14CO2 capturing assay in 384-well format, fold activity of backbone (Megatable 2); conditions: relative to backbone SEQ ID NO: 509 (DDEC0810)

| Molecule | Fold Activity |
| --- | --- |
| B1 | 0.8 fold |
| B2 | 1.3 fold |
| B3 | 1.1 fold |
| B4 | 1.5 fold |
| B5 | 1.1 fold |
| B6 | 1.3 fold |
| B7 | 1.0 fold |
| B8 | 1.1 fold |
| B9 | 1.2 fold |
| B10 | 1.0 fold |
| B11 | 1.1 fold |
| B12 | 1.1 fold |
| B13 | 1.3 fold |
| B14 | 1.2 fold |
| B15 | 0.9 fold |

Reference: US20160040149A1, “Compositions Having Dicamba Decarboxylase Activity and Methods of Use” (priority 2013, published 2016)
